Assay results as given in patent publication US20090124537A1 (THRASOS, published 2009).
Bridges are numbered along the chain shown (N, C = ends). Where no end group is shown, it is not given here.

B1: F2-3 (peptide)
peptide: CYFDDSSNVICKKYRS
modifications: disulfide 1-11
notes: also called Peptide F2-3; BMP test agent F2-3
B2: extracellular domain (ECD) of the type II receptor daf-4, hexa-histidine tagged (receptor)
chain: WANTLVSKVAQSNGTGTIKVSAPAKPTLRRMDNEEDEVISIECVYYDEMECEKSGDCEITKKTCYSEAHLKAVGCLAVFGLPTQEINSTEPYLKVDKPQYKSLGCMPYQHADSMNCENESSCRQGRSFRGGIGMCCCSTNNCNMPDLIEMVNPSLKKDSDNSALLWASTPSNMDLESLDKSSSRASQPELAPEDPEDVEHHHHHH
modifications: heavily glycosylated
notes: Expressed in CHO cells; also called daf-4 ECD; ECD of daf-4 receptor
B3: bone morphogenetic protein-7 (ligand, UniProt P18075 293-431, looked up)
chain: STGSKQRSQNRSKTPKNQEALRMANVAENSSSDQRQACKKHELYVSFRDLGWQDWIIAPEGYAAYYCEGECAFPLNSYMNATNHAIVQTLVHFINPETVPKPCCAPTQLNAISVLYFDDSSNVILKKYRNMVVRACGCH
modifications: radio-iodinated (125I, lactoperoxidase method) when used as tracer; glycoprotein
notes: also called BMP-7

Tests used:
[1] = target: T1, BMP-7 receptor of ROS cell plasma membrane fraction (ROS cell type II BMP receptor) (rat); assay: radioligand receptor assay, displacement of 125I-BMP-7 from ROS cell plasma membranes
T1 construct: whole, on cells; Used as a plasma membrane fraction of ROS cells, not as a purified protein; also called BMP-7 receptor-enriched plasma membrane fraction of ROS cells; ROS cell receptor

[2] = target: B3; assay: Scatchard analysis of BMP-7 binding to purified daf-4 ECD
[3] = target: T1, BMP-7 receptor of ROS cell plasma …; assay: radioligand binding of 125I-BMP-7 to ROS cell receptor-enriched plasma membrane fraction
Description: Receptors from ROS cells are obtained by a procedure previously described (Dattatreyamurty, B., et al., (1986) J. Biol. Chem. 261.). […] In a typical assay, fixed amounts of ¹²⁵I-labeled sol. […] The assay incubations were carried out in a reaction volume of 300 μl with shaking for 22 hrs. at 4° C. […] The supernatants were aspirated and pellets washed before counting in a gamma counter (Packard Instr. Downers Grove, Ill.).

Binder: B1
IC50 [1]: 10 µM

Binder: B2
Ka [2]: 2.96e+10 M⁻¹

Binder: B3
Ka [3]: 4.38e+09 M⁻¹
